Assay results reported in patent US20240294593A1 (Genentech, published 2024).
Numbering of substitutions follows the chain as printed. In names and notes the source's numbering stands.

B1: XENP28519 (humanized mAb A, bivalent mAb) (antibody, human IgG1, kappa, V domains shown)
VH: QVQLQESGPGLVKPSQTLSLTCTVSGHSITSDYAWNWIRQPPGKKLEWIGYISYSGYTTYNPSLKSRVTISRDTSKNQFSLKLSSVTAADTAVYFCARDLDYGPWFAYWGQGTLVTVSS
VL: DIQMTQSPSSLSASVGDRVTITCRASENIHNYLAWYQQKPGKSPKLLVYNVKTLADGVPSRFSGSGSGTDYTLTISSLQPEDFATYYCQHFWSSPWTFGGGTKVEIKR
B2: XENP28538 (humanized variant of mAb C, bivalent human IgG1) (antibody, V domains shown)
VH: EVQLVESGGGLVKPGGSLRLSCAASGFTFSSFGMHWVRQAPGKGLEWVGYISSGSSIIYYADPVKGRFTISRDNSKNTLYLQMNSLKTEDTAVYYCARGGRLVWSPDYWGQGTLVTVSS
VL: DIVMTQSPDSLAVSLGERATINCKSSQSLLNSGNQKNYLTWYQQKPGQPPKLLIYWASTRESGVPDRFTGSGSGTDFTLTISSLQAEDVAVYYCQNDYSYPFTFGSGTKLEIKR
notes: Human IgG1 with E233P/L234V/L235A/G236del/S267K
B3: XENP28539 (humanized variant of mAb C, bivalent human IgG1) (antibody, V domains shown)
VH: B2 VH
VL: DIVMTQSPLSLPVTPGEPASISCRSSQSLLNSGNQKNYLTWYLQKPGQPPQLLIYWASTRESGVPDRFTGSGSGTDFTLKISRVEAEDVGVYYCQNDYSYPFTFGSGTKLEIKR
notes: as for B2
B4: H1.178_L1.140 (XENP32424) (antibody, V domains shown)
VH: EVQLVESGGGLVQPGGSLRLSCAASGFTFSSLGMHWVRQAPGKGLEWVSYISGGSSIIYYADSVKGRFTISRDNAKNSLYLQMNSLRAEDTAVYYCARGGFLVFSPDYWGQGTLVTVSS
VL: B2 VL with N31H, K36Y, S99T
notes: VH-F34L/S55G/R109F/W112F, VL-N31H/K36Y/S99T (Xencor #); Kabat positions VH-32/52A/97/100, VL-27D/30/93; also called mAb C[PD-1]_H1.178_L1.140; copies: 2 + 2
B5: H1.185_L1.140 (XENP32431) (antibody, V domains shown)
VH: B4 VH with F101H
VL: B2 VL with N31H, K36Y, S99T
notes: VH-F34L/S55G/R109H/W112F, VL-N31H/K36Y/S99T (Xencor #); Kabat positions VH-32/52A/97/100, VL-27D/30/93; also called mAb C[PD-1]_H1.185_L1.140; copies: 2 + 2
B6: H1.183_L1.140 (XENP32429) (antibody, V domains shown)
VH: B4 VH with F101V
VL: B2 VL with N31H, K36Y, S99T
notes: VH-F34L/S55G/R109V/W112F, VL-N31H/K36Y/S99T (Xencor #); Kabat positions VH-32/52A/97/100, VL-27D/30/93; also called mAb C[PD-1]_H1.183_L1.140; copies: 2 + 2
B7: H1.182_L1.140 (XENP32428) (antibody, V domains shown)
VH: B4 VH with F101L
VL: B2 VL with N31H, K36Y, S99T
notes: VH-F34L/S55G/R109L/W112F, VL-N31H/K36Y/S99T (Xencor #); Kabat positions VH-32/52A/97/100, VL-27D/30/93; also called mAb C[PD-1]_H1.182_L1.140; copies: 2 + 2
B8: H1.184_L1.140 (XENP32430) (antibody, V domains shown)
VH: B4 VH with F101D
VL: B2 VL with N31H, K36Y, S99T
notes: VH-F34L/S55G/R109D/W112F, VL-N31H/K36Y/S99T (Xencor #); Kabat positions VH-32/52A/97/100, VL-27D/30/93; also called mAb C[PD-1]_H1.184_L1.140; copies: 2 + 2
B9: mAb C[PD1]_H1.180_L1.140 (bivalent IgG1) (antibody, V domains shown)
VH: B4 VH with F101E
VL: B2 VL with N31H, K36Y, S99T
notes: Bivalent IgG1 format with E233P/L234V/L235A/G236_/S267K; copies: 2 + 2
B10: H1.181_L1.140 (XENP32427) (antibody, V domains shown)
VH: B4 VH with F101Q
VL: B2 VL with N31H, K36Y, S99T
notes: VH-F34L/S55G/R109Q/W112F, VL-N31H/K36Y/S99T (Xencor #); Kabat positions VH-32/52A/97/100, VL-27D/30/93; also called mAb C[PD-1]_H1.181_L1.140; copies: 2 + 2
B11: H1.188_L1.140 (XENP32434) (antibody, V domains shown)
VH: B4 VH with F101T
VL: B2 VL with N31H, K36Y, S99T
notes: VH-F34L/S55G/R109T/W112F, VL-N31H/K36Y/S99T (Xencor #); Kabat positions VH-32/52A/97/100, VL-27D/30/93; also called mAb C[PD-1]_H1.188_L1.140
B12: H1.179_L1.140 (XENP32425) (antibody, V domains shown)
VH: B4 VH with F101Y
VL: B2 VL with N31H, K36Y, S99T
notes: VH-F34L/S55G/R109Y/W112F, VL-N31H/K36Y/S99T (Xencor #); Kabat positions VH-32/52A/97/100, VL-27D/30/93; also called mAb C[PD-1]_H1.179_L1.140; copies: 2 + 2
B13: mAb C[PD1]_H1.176_L1.140 (bivalent IgG1) (antibody, V domains shown)
VH: B4 VH with G53S, F101R
VL: DIVMTQSPDSLAVSLGERATINCKSSQSLLHSGNQYNYLTWYQQKPGQPPKLLIYWASTRESGVPDRFTGSGSGTDFTLTISSLQAEDVAVYYCQNDYTYPFTFGSGTKLEIK
notes: Bivalent IgG1 format with E233P/L234V/L235A/G236_/S267K
B14: H1.187_L1.140 (XENP32433) (antibody, V domains shown)
VH: B4 VH with F101W
VL: B2 VL with N31H, K36Y, S99T
notes: VH-F34L/S55G/R109W/W112F, VL-N31H/K36Y/S99T (Xencor #); Kabat positions VH-32/52A/97/100, VL-27D/30/93; also called mAb C[PD-1]_H1.187_L1.140
B15: H1.186_L1.140 (XENP32432) (antibody, V domains shown)
VH: B4 VH with F101A
VL: B2 VL with N31H, K36Y, S99T
notes: VH-F34L/S55G/R109A/W112F, VL-N31H/K36Y/S99T (Xencor #); Kabat positions VH-32/52A/97/100, VL-27D/30/93; also called mAb C[PD-1]_H1.186_L1.140; copies: 2 + 2

biological target: T1, human PD-1-His (human, UniProt Q15116 25-167, limits assumed); assay: Octet (BLI); antibody captured on anti-human Fc (AHC) biosensors and dipped into multiple concentrations of human PD-1-His
T1 construct: Antigen of the Octet assays; not shown: His tag
T1 sequence (Q15116 25-167 limits assumed): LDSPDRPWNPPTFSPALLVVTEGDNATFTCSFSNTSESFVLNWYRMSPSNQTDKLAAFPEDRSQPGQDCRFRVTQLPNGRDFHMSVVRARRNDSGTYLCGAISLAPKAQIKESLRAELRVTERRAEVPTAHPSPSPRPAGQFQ

Row | Kd [nM] | binding result | Binder
1 | 11.9 |  | B1
2 |  | no binding | B2
3 |  | no binding | B3

biological target: T1, human PD-1-His; assay: Octet (BLI), bivalent IgG1 mAb; legend calls the constant apparent (KDapp)

Row | Kd [nM] | Binder
4 | 0.986 | B4
5 | 1.06 | B5
6 | 0.952 | B6
7 | 0.943 | B7
8 | 0.798 | B8
9 | 0.601 | B9
10 | 0.905 | B10
11 | 0.981 | B11
12 | 0.864 | B12
13 | 2.13 | B13
14 | 1.03 | B14
15 | 0.945 | B15

biological target: T1, human PD-1-His; assay: Octet (BLI), bivalent IgG1 mAb

Row | koff [s⁻¹] | kon [M⁻¹ s⁻¹] | Binder
16 | 0.000182 | 184000 | B4
17 | 0.000169 | 160000 | B5
18 | 0.000178 | 187000 | B6
19 | 0.000176 | 187000 | B7
20 | 0.000188 | 236000 | B8
21 | 0.000154 | 256000 | B9
22 | 0.000173 | 191000 | B10
23 | 0.000177 | 181000 | B11
24 | 0.00017 | 197000 | B12
25 | 0.000278 | 131000 | B13
26 | 0.000198 | 193000 | B14
27 | 0.000179 | 189000 | B15
